Experimental data: article PMC5992148, “Molecular principles underlying dual RNA specificity in the Drosophila SNF protein”

How the values were obtained:
[1] = molecular target: Drosophila U2A′ (dU2A′), triple cysteine variant, produced apart from dSNF (Drosophila melanogaster) (UniProt Q9V4Q8); assay: ITC; dU2A′ as the sample (2.5 µM), dSNF^1-101 as titrant (25 µM); 22 °C; 50 mM KCl, 100 mM arginine, 10 mM sodium cacodylate, pH 6.5 (methods) or pH 7 (results)
dSNF1-96 (RRM1) [2] = molecular target: T1, dSNF1-96 (RRM1) (Drosophila melanogaster, UniProt P43332 1-96); assay: ITC; 1 mM Mg2+, 10 C; n 0.894; ITC: 150 mM KCl, 1 mM MgCl2, 20 mM HEPES-NaOH pH 7.5, 5% glycerol, 10 C; NMR: 50 mM KCl, 20 mM sodium cacodylate pH 6.5, 2 mM EDTA, 23 C; filter binding: KCl varied, other conditions not stated; conditions: protein: recombinant; tags: N-terminal His6, TEV-cleaved; hairpin, 10-nt loop, 9-bp blunt stem
T1 sequence: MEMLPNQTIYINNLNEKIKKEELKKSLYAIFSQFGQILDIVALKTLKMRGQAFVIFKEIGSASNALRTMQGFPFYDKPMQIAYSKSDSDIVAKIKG

dSNF1-101 (RRM1) [3] = molecular target: T2, dSNF1-101 (RRM1) (UniProt P43332 1-101); assay: NMR chemical shift perturbation; 300 uM protein, 700 uM RNA; ITC: 150 mM KCl, 1 mM MgCl2, 20 mM HEPES-NaOH pH 7.5, 5% glycerol, 10 C; NMR: 50 mM KCl, 20 mM sodium cacodylate pH 6.5, 2 mM EDTA, 23 C; filter binding: KCl varied, other conditions not stated; conditions: protein: recombinant; tags: none stated; hairpin
T2 sequence: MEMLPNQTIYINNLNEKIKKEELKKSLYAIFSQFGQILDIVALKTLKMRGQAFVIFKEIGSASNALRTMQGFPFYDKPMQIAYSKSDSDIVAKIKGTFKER

dSNF1-96 (RRM1) [4] = molecular target: T1, dSNF1-96 (RRM1); assay: crystal structure; 2.0 A; ITC: 150 mM KCl, 1 mM MgCl2, 20 mM HEPES-NaOH pH 7.5, 5% glycerol, 10 C; NMR: 50 mM KCl, 20 mM sodium cacodylate pH 6.5, 2 mM EDTA, 23 C; filter binding: KCl varied, other conditions not stated; conditions: protein: recombinant; tags: N-terminal His6, TEV-cleaved; hairpin, blunt, 10-nt loop
dSNF1-96 (RRM1) [5] = molecular target: T1, dSNF1-96 (RRM1); assay: ITC; 1 mM Mg2+, 10 C; n 0.781; ITC: 150 mM KCl, 1 mM MgCl2, 20 mM HEPES-NaOH pH 7.5, 5% glycerol, 10 C; NMR: 50 mM KCl, 20 mM sodium cacodylate pH 6.5, 2 mM EDTA, 23 C; filter binding: KCl varied, other conditions not stated; conditions: protein: recombinant; tags: N-terminal His6, TEV-cleaved; hairpin, 11-nt loop, U:G closing pair, blunt
dSNF1-101 (RRM1) [6] = molecular target: T2, dSNF1-101 (RRM1); assay: filter binding; without dU2A'; ITC: 150 mM KCl, 1 mM MgCl2, 20 mM HEPES-NaOH pH 7.5, 5% glycerol, 10 C; NMR: 50 mM KCl, 20 mM sodium cacodylate pH 6.5, 2 mM EDTA, 23 C; filter binding: KCl varied, other conditions not stated; conditions: protein: recombinant; tags: none stated; label: 32P internal; hairpin

B1: Drosophila melanogaster SNF RRM1, residues 1-101 (dSNF^1-101) (domain or fragment)
chain: T2 sequence
Binder B1 has a Kd [1] of 4.2 nM and a dH [1] of -241 kcal/mol.

For CCAGGACGCAUUGCACCUCGCGUCCUGG (structured_RNA) [dU1SLII (ITC)], the Kd (dSNF1-96 (RRM1) [2]) was 34 nM.

GGCCGGCAUUGCACCACGCGCCGGGUCC (structured_RNA) [dU1SLII (T7, NMR)]: binds (dSNF1-101 (RRM1) [3]).

GGCCGCAUUGCACCUCGCGGCC (structured_RNA) [dU1SLII 22-mer (crystal)]: binds (dSNF1-96 (RRM1) [4]).

With CCAGGACGUAUUGCAGUACCGCGUCCUGG (structured_RNA) [dU2SLIV (ITC)] the Kd (dSNF1-96 (RRM1) [5]) was 782 nM.

In the case of GGCCGGUAUUACAGUACCGCCGGGUCC (structured_RNA) [dU2SLIV G10A], the binding signal (dSNF1-101 (RRM1) [6]) is reported as 1000 fold lower affinity than wt N6.

GGCCGGUAUUGCAAUACCGCCGGGUCC (structured_RNA) [dU2SLIV G13A] was tested, and the binding signal (dSNF1-101 (RRM1) [6]) was 200 fold lower affinity than wt N6.

For GGCCGGUAUUGCACUACCGCCGGGUCC (structured_RNA) [dU2SLIV G13C], the binding signal (dSNF1-101 (RRM1) [6]) was 16 fold higher affinity than wt N6.
